Experimental data reported in article PMC11349869.

B1: BCT1 CmpCD fusion (GN128) (Synechococcus elongatus PCC 7942 = FACHB-805) (protein)
chain 1: CGNPPSSSGGGTSSTTQPTAAGASDLEVKTIKLGYIPIFEAAPLIIGREKGFFAKYGLDVEVSKQASWAAARDNVILGSAGGGIDGGQWQMPMPALLTEGAISNGQKVPMYVLACLSTQGNGIAVSNQLKAQNLGLKLAPNRDFILNYPQTSGRKFKASYTFPNANQDFWIRYWFAAGGIDPDKDIELLTVPSAETLQNMRNGTIDCFSTGDPWPSRIAKDDIGYQAALTGQMWPYHPEEFLALRADWVDKHPKATLALLMGLMEAQQWCDQKANRAEMAKILSGRNFFNVPVSILQPILEGQIKVGADGKDLNNFDAGPLFWKSPRGSVSYPYKGLTLWFLVESIRWGFNKQVLPDIAAAQKLNDRVTREDLWQEAAKKLGVPAADIPTGSTRGTETFFDGITYNPDSPQAYLQSLKIKRA
chain 2: MVTARETRRNGSRPSGLKKWRQKLDGILLPLAGILGFLIIWQIFSSSGATRLPGPLSLFTEERTRELLLYPFLDRGGLDKGLFWQTIASLTRVAQGFSIAAIIGISVGILVGLNRQLNAMLDPLFQFLRMIAPLAWVPIALVAFQQNQPAAIFVIFITAVWPILINTAEGVRQIPQDYNNVARVLRMSKSKYLMKVVLPAALPYIFTGLRIAIGLSWLAIIAAEIVMSGIVGIGFFIWDAYQQNYVSDIILAVIYIGAVGLLLDRFVAWLQRWILRNM
B2: BCT1 CmpCD fusion with tags (GM319) (Synechococcus elongatus PCC 7942 = FACHB-805) (protein)
chain 1: B1 chain 1
chain 2: B1 chain 2

Substrate: O=C(O)O
Test: cells, lysate or membranes
Settings: pH 7.5, 20 mM bis-tris propane-H2SO4, 0.5 mM glucose, 1 µM CaCl2, induced with 100 µM IPTG, labelled compound

Protein	Km [µM]
B1	120 ± 20
B2	170 ± 30
